Data: patent US20150087814A1 (UNIVERSITY OF MARYLAND BALTIMORE, published 2015)

Experiments:
Test in all cases: SPR (Biacore T100), antibody captured on protein A chip, receptor injected as analyte
FcγRIIIa-F158 = molecular target: T1, FcγRIIIa-F158 (UniProt P08637 17-208, limits assumed)
T1 construct: also called FcγRIIIa-F158 allele

FcγRIIIa-V158 = molecular target: T2, FcγRIIIa-V158 (UniProt P08637 17-208, limits assumed)
T2 construct: It names the V158 allele but states no substitution against an entry; also called FcγRIIIa-V158 allele

FcγRIIb = molecular target: T3, FcγRIIb (UniProt P31994 46-217, limits assumed)
T3 construct: also called FcγIIb receptor
T3 sequence (looked up): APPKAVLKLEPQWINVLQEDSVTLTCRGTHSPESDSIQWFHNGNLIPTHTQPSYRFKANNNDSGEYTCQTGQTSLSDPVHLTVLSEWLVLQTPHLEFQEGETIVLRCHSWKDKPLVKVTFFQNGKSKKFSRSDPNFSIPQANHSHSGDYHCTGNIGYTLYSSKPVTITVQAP

T1 sequence (P08637 17-208 limits assumed): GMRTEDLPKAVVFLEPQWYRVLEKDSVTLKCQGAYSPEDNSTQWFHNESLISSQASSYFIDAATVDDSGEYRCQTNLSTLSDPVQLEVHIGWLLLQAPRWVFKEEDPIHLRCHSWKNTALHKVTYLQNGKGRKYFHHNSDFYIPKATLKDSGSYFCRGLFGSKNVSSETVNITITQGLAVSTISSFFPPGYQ
T2 sequence (P08637 17-208 F176V limits assumed): as the sequence (P08637 17-208 limits assumed) above, with F160V counted along it

B1: commercial rituximab (rituxan, Genentech Inc.) (antibody)
chain 1: not shown
chain 2: QIVLSQSPAILSASPGEKVTMTCRASSSVSYIHWFQQKPGSSPKPWIYATNLASGVPVRFSGSGSGTSYSLTISRVEAEDAATYYCQQWTSNPPTFGGGTKLEIKRTVAAPSVFIFPPSDEQLKSGTASVVCLLNNFYPREAKVQWKVDNALQSGNSQESVTEQDSKDSTYSLSSTLTLSKADYEKHKVYACEVTHQGLSSPVTKSFNRGEC
Kd (FcγRIIIa-F158): 1.04 µM | Kd (FcγRIIIa-V158): 0.252 µM | Kd (FcγRIIb): 2 µM
